From patent US20180194862A1 (AbbVie / Abbott, published 2018)
Where a chain is given by its changes, count along the chain named.

B1: HuAb17 (antibody, V domains shown)
VH: EVQLVQSGAEVKEPGASVKVSCKASGDTFNRYYVHWARQAPGQGLEWMGIINPSGVSTTYAQKFQGRVTMTRDTPTNTVYMELGSLRPEDTAVYFCAESRGSGYNYFAMDVWGQGTLVTVSS
VL: SYELTQPPSVSVSPGQTADITCSGDKLGDKYASWYQQKPGQSPVLVIYQDNRRPSGIPERFSGSNSGNTATLTISGTQAMDEADYYCQAWDSDTYVFGPGTKVTVL
notes: fully human antibody
B2: HuAM17 (antibody, V domains shown)
VH: EVQLVQSGAEVKKPGASVKVSCKASGDTFNRYYVQWVRQAPGQGLEWMGIINPSGVSTTYAQKFQGRVTMTRDTSTSTVYMELSSLRSEDTAVYYCAESRVPGYNIFAMDVWGQGTLVTVSS
VL: B1 VL with D19S, P99T
notes: fully human antibody
B3: HuAM6 (antibody, V domains shown)
VH: B2 VH with Q35H, I106N
VL: B1 VL with D19S, P99T
notes: fully human antibody
B4: HuAM7 (antibody, V domains shown)
VH: B2 VH with Q35H, S99V, V101G, P102S, I106Y, A108G
VL: B1 VL with D19S, P99T
notes: fully human antibody
B5: HuAM1 (antibody, V domains shown)
VH: B2 VH with N30K, V101G, P102S, I106Y
VL: B1 VL with D19S, P99T
notes: fully human antibody
B6: HuAM18 (antibody, V domains shown)
VH: B2 VH with Q35H, S99T, V101G, P102S, I106Y, A108G
VL: B1 VL with D19S, P99T
notes: fully human antibody
B7: AD166.4.4 (antibody, V domains shown)
VH: QVQLQQSGAELMKPGASAKLSCKATGYTFTGYWIQWVKQRPGHGLEWIGEILPGGDHTKYNEKFRGKATFTSDTSSNTVYMQLSSLTTEDSAIYYCARVGGDYWGQGTTLTVSS
VL: DVVMTQTPLSLPVSLGDQASISCRSSQSLVNSNENTYLHWYLQKPGQSPKLLIYKVFNRYSGVPDRFSGSGSGTDFTLKISRVEAEDLGVYFCFQSTHVPWTFGGGTKLEIK
notes: mouse hybridoma antibody; also called muAb2
B8: AD163.9.3 (antibody, V domains shown)
VH: QVQLQQPGAELVKPGASVKMSCKASGYTFTSYWITWVKQRPGQGLEWIGEINPGSGSTNYNEKFKSKATLTVDTSSSTAYMQLSSLTSEDSAVYYCARNRGTGDYWGQGTTLTVSS
VL: B7 VL with N31H, N33Y, E34G, L51F, F57S, Y60I, F67L, A85P, F94S, W101Y
notes: mouse hybridoma antibody; also called muAb1
B9: AD164.76.3 (antibody, V domains shown)
VH: DVQLQESGPGLVKPSQSLSLTCSVTGYSITSNYYWNWIRQFPGNKLEWMGYIRYDGSNNYNPSLKNRISITRDTSKNQFFLRLNSVTTEDTATYYCTRLDYWGQGTTLTVSS
VL: DAVMTQTPLSLPVSLGDQASISCRSSQSLENSNGNTFLNWFLQKPGQSPQLLIYRISNRFSGVPDRFSGSGSGTDFTLKISRVEAEDLGVYFCLQVTHVPFTFGSGTKLEIK
notes: mouse hybridoma antibody; also called muAb10; AD164.76.2
B10: AD165.1.2 (antibody, V domains shown)
VH: DVQLQESGPGLVEPSQSLFLTCSVTGYSITTNYNWNWIRQFPGNKLEWMGYIRHDGTNNYNPSLKNRISIIRDTPKNQFFLKLNSVTTEDTAIYFCTRLDYWGQGTSVTVSS
VL: B9 VL with N33Y, K44R, I56V, S61C, V90I, F101Y, S105G
notes: mouse hybridoma antibody; also called muAb5
B11: AD164.14.6 (antibody, V domains shown)
VH: B9 VH with R82K, T97A
VL: B9 VL with S32T, I56V
notes: mouse hybridoma antibody; also called muAb9
B12: AD163.7.2 (antibody, V domains shown)
VH: QVQLQQSGPELVKSGASVKISCKASGYTFTDYYINWVKQRPGQGLEWIGWIFPGSGSVYCNEQFKGQATLTVDRSSSTAYMLLSSLTSEDSAVYFCASSLGKFAYWGQGTLVTVSA
VL: DIVMTQSQKFMSTTVGDRVSITCKASQSVVTAVAWYQQKPGQSPKLLIYSASNRYTGVPDRFTGSGSGTDFALTIRTMQSEDLADYFCQQYSSYPYTFGGGTKLEIK
notes: mouse hybridoma antibody; also called muAb8
B13: AD175.14.11 (antibody, V domains shown)
VH: EVQLQQSGPELVKPGASVKISCKASGYTFTDYYMNWVKQSHGKSLEWIGDINPNNGGTSYNQKFKGKATLTVDKSSSTAYMELRSLTSEDSAVYYCARRGGLGRGTYALDYWGQGTSVTVSS
VL: DIQMTQTTSSLSASLGDRVTISCRASQDISNYLNWYQQKPDGTVKPLIYYTSRLHLGVPSRFSGSGSGTDYSLTISNLEQEDIATYFCQQGNTLPLTFGAGTKLELK
notes: mouse hybridoma antibody; also called muAb3
B14: AD163.10.7 (antibody, V domains shown)
VH: LVQPGGSLSLSCAASGFTFSDYYMSWVRQPPGKALEWLGFIRNKANGYTTEFSASVKGRFTISRDNSQSILYLQMNALRAEDSATYYCARYGGLRQGWYFDVWGTGTTVTVSS
VL: B13 VL with S30R, P46L, L56S, N92K, L96W, A100G, T102S, L106M
notes: mouse hybridoma antibody; also called muAb4
B15: AD163.162.1 (antibody, V domains shown)
VH: QVQLQQPGAELVRPGSSVKLSCKASGYTFTSYWMHWVKQRPIQGLEWIGNIDPSNGETHYNQKFKDKATLTVDKSSSTAYMQLSSLTSEDSAVYYCARERIYYSGSTYDGYFDVWGTGTTVTVSS
VL: QIVLTQSPAIMSASPGEKVTMTCSASSSLSYMHWYQQKSGTSPKRWIYDTSKLASGVPARFSGSGSGTSYSLTISSMEAEDAATYYCQQWSSNPWTFGGGTKLEIK
notes: mouse hybridoma antibody; also called muAb6
B16: AD163.27.12 (antibody, V domains shown)
VH: B15 VH
VL: B15 VL with A79G, A82G
notes: mouse hybridoma antibody; also called muAb7
B17: HuAM11 (antibody, V domains shown)
VH: B2 VH with N30K, V34M, Q35H, S99V, V101G, P102S, Y104F, I106Y, A108G
VL: B1 VL with D19S, A89V, P99T
notes: fully human antibody
B18: HuAM12 (antibody, V domains shown)
VH: B2 VH with N30H, Q35H, S99V, V101G, P102S, Y104F, I106Y, A108G
VL: B1 VL with D19S, P99T
notes: fully human antibody
B19: HuAM14 (antibody, V domains shown)
VH: B2 VH with N30K, V34M, Q35H, S99V, V101G, P102S, Y104F, I106Y, A108G
VL: B1 VL with D19S, P99T
notes: fully human antibody
B20: HuAM13 (antibody, V domains shown)
VH: B2 VH with S99T, V101G, P102S, Y104F, I106Y, A108G
VL: B1 VL with D19S, A89V, P99T
notes: fully human antibody

Each binder was assayed against T1, cynomolgus mesothelin (cynomolgus) (assay: SPR).
T1 construct: also called cynoMSLN; Cyno MSLN
Work on B1 yielded a Kd of 8.1 nM, a koff of 0.00013 s⁻¹ and a kon of 15000 M⁻¹ s⁻¹.
B2 was tested, and the Kd was 3.4 nM, the koff was 9.1e-05 s⁻¹ and the kon was 27000 M⁻¹ s⁻¹.
Work on B3 yielded a Kd of 3.9 nM, a koff of 8.5e-05 s⁻¹ and a kon of 22000 M⁻¹ s⁻¹.
B4 showed a Kd of 4.9 nM, a koff of 0.00011 s⁻¹ and a kon of 22000 M⁻¹ s⁻¹.
B5 was tested, and the Kd was 11 nM, the koff was 0.0002 s⁻¹ and the kon was 18000 M⁻¹ s⁻¹.
For B6, the Kd was 9.3 nM, the koff was 0.00013 s⁻¹ and the kon was 14000 M⁻¹ s⁻¹.

What follows are binders tested against T2, human mesothelin (human, UniProt Q13421 296-580, limits assumed) (assay: SPR).
T2 construct: also called Human MSLN
T2 sequence (Q13421 other isoform, or with tags, fused parts or gaps limits assumed): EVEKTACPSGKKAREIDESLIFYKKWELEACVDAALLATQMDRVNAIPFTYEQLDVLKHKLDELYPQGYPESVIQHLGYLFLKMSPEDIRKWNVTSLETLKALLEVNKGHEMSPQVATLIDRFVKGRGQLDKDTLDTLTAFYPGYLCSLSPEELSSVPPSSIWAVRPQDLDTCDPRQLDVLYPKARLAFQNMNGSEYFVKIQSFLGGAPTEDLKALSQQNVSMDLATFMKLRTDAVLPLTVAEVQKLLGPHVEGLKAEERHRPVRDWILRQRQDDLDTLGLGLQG
Work on B1 yielded a Kd of 2.6 nM, a koff of 3.2e-05 s⁻¹ and a kon of 12000 M⁻¹ s⁻¹.
For B2, the Kd was 0.53 nM, the koff was 1.5e-05 s⁻¹ and the kon was 29000 M⁻¹ s⁻¹.
Binder B3 has a Kd of 1 nM, a koff of 2.4e-05 s⁻¹ and a kon of 24000 M⁻¹ s⁻¹.
For B4, the Kd was at most 0.39 nM, the koff was at most 1e-05 s⁻¹ and the kon was 26000 M⁻¹ s⁻¹.
Work on B5 yielded a Kd of 2.7 nM, a koff of 5.1e-05 s⁻¹ and a kon of 19000 M⁻¹ s⁻¹.
B6 was tested, and the Kd was at most 0.66 nM, the koff was at most 1e-05 s⁻¹ and the kon was 16000 M⁻¹ s⁻¹.

Each binder was assayed against T3, soluble form of the extracellular domain of human CD40 (Creative BioMart) (human, UniProt P25942 21-193) (assay: SPR, Ab captured).
T3 construct: Bought
T3 sequence (P25942 21-193 limits assumed): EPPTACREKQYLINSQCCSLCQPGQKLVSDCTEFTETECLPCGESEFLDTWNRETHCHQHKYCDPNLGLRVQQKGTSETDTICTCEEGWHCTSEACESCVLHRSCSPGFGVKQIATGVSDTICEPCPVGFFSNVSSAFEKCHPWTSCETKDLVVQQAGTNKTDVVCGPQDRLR
Method: CD40 binding kinetics was analyzed by surface plasmon resonance assay with a Biacore T200 instrument (Table 1-5). Briefly, a goat anti-mouse Fc antibody (Pierce) or goat anti-human Fc (Pierce) was immobilized on a CM5 sensor chip, followed by capture of the anti-CD40 antibodies on the test surface. Subsequently, the soluble form of the extracellular domain of human CD40 (Creative BioMart) or cynomolgus (cyno) CD40 (Creative BioMart) was injected, and the binding and dissociation were measured.
B7 gave a Kd of 3.5 nM, a koff of 0.0096 s⁻¹ and a kon of 2.8e+06 M⁻¹ s⁻¹.
With B8 the Kd was 35 nM, the koff was 0.016 s⁻¹ and the kon was 470000 M⁻¹ s⁻¹.
B9 was tested, and the Kd was 13 nM, the koff was 0.034 s⁻¹ and the kon was 2.6e+06 M⁻¹ s⁻¹.
B10 was tested, and the Kd was 0.88 nM, the koff was 0.002 s⁻¹ and the kon was 2.3e+06 M⁻¹ s⁻¹.
B11 gave a Kd of 19 nM, a koff of 0.052 s⁻¹ and a kon of 2.8e+06 M⁻¹ s⁻¹.
Binder B12 has a Kd of 4.1 nM, a koff of 0.0042 s⁻¹ and a kon of 1e+06 M⁻¹ s⁻¹.
With B13 the Kd was 170 nM, the koff was 0.012 s⁻¹ and the kon was 69000 M⁻¹ s⁻¹.
In the case of B14, the Kd is reported as 76 nM, the koff is reported as 0.17 s⁻¹ and the kon is reported as 2.3e+06 M⁻¹ s⁻¹.
In the case of B15, the Kd is reported as 63 nM, the koff is reported as 0.0048 s⁻¹ and the kon is reported as 76000 M⁻¹ s⁻¹.
In the case of B16, the Kd is reported as 64 nM, the koff is reported as 0.0048 s⁻¹ and the kon is reported as 75000 M⁻¹ s⁻¹.

The binders below were run against T4, mesothelin on cells (endogenous on SN12C, OVCAR3, SW1990); HEK293 cells expressing cell-surface human … (human, UniProt Q13421 296-598) (assay: FACS, SN12C (CA125-)).
T4 construct: whole, on cells; also called cell-surface MSLN
T4 sequence (Q13421 other isoform, or with tags, fused parts or gaps limits assumed): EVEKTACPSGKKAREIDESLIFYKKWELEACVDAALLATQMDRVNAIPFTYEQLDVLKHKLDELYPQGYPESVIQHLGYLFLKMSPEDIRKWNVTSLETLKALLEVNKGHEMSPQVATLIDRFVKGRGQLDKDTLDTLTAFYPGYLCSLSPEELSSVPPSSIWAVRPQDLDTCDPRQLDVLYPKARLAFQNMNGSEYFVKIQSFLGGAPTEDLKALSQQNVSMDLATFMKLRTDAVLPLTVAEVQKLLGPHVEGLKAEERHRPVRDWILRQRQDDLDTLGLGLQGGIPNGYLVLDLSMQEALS
Method: (§1) The binding of anti-mesothelin affinity matured variants was measured by FACS on the ovarian cancer cell line OVCAR3, the pancreatic cancer cell line SW1990, and the renal cancer cell line SN12C. Both OVCAR3 and SW1990 express CA125, but CA125 expression on SN12C cells was not detected.
B1 was tested, and the EC50 was 2.74 µg/mL and the “Maximum binding (MFI)” value was 11000 MFI.
With B17 the EC50 was 0.04 µg/mL and the “Maximum binding (MFI)” value was 7530 MFI.
B18 was tested, and the EC50 was 0.09 µg/mL and the “Maximum binding (MFI)” value was 9630 MFI.
B19 was tested, and the EC50 was 0.09 µg/mL and the “Maximum binding (MFI)” value was 9800 MFI.
B20 was tested, and the EC50 was 0.09 µg/mL and the “Maximum binding (MFI)” value was 9870 MFI.

Each binder was assayed against T4, mesothelin on cells (endogenous on …) (assay: FACS, OVCAR3 (CA125+)).
Method: as §1
For B1, the EC50 was 2.9 µg/mL and the “Maximum binding (MFI)” value was 1640 MFI.
In the case of B17, the EC50 is reported as 0.7 µg/mL and the “Maximum binding (MFI)” value is reported as 3430 MFI.
For B18, the EC50 was 0.8 µg/mL and the “Maximum binding (MFI)” value was 3270 MFI.
With B19 the EC50 was 0.7 µg/mL and the “Maximum binding (MFI)” value was 3370 MFI.
For B20, the EC50 was 0.7 µg/mL and the “Maximum binding (MFI)” value was 3670 MFI.

These binders were tested against human CD40 on cells (HEK293 stable transfectants, HEK-Blue CD40 cells, human B cells, monocytic cells, … (human, UniProt P25942 21-277)) (assay: cell-based or functional assay).
human CD40 on cells (HEK293 stable transfectants, HEK-Blue CD40 cells, human B cells, monocytic cells, …, sequence (P25942 21-277 limits assumed): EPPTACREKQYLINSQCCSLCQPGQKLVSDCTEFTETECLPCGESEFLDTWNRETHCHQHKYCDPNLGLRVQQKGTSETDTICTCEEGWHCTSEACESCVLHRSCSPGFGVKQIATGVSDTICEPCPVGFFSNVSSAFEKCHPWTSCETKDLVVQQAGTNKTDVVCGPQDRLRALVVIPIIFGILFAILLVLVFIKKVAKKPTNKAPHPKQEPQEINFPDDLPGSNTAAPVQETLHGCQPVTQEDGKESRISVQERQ
For B7, the “Monocyte activation (THP1-Xblue, OD655)” value was 0.24 OD655 and the “moDC activation (IL-12p70)” value was 0 pg/mL.
B8 was tested, and the “Monocyte activation (THP1-Xblue, OD655)” value was 0.19 OD655 and the “moDC activation (IL-12p70)” value was 2220 pg/mL.
B9 was tested, and the “Monocyte activation (THP1-Xblue, OD655)” value was 0.16 OD655 and the “moDC activation (IL-12p70)” value was 770 pg/mL.
With B10 the “Monocyte activation (THP1-Xblue, OD655)” value was 0.14 OD655 and the “moDC activation (IL-12p70)” value was 720 pg/mL.
For B11, the “Monocyte activation (THP1-Xblue, OD655)” value was 0.15 OD655 and the “moDC activation (IL-12p70)” value was 878 pg/mL.
B12 was tested, and the “Monocyte activation (THP1-Xblue, OD655)” value was 0.13 OD655 and the “moDC activation (IL-12p70)” value was 905 pg/mL.
B13 was tested, and the “Monocyte activation (THP1-Xblue, OD655)” value was 0.2 OD655 and the “moDC activation (IL-12p70)” value was 0 pg/mL.
For B14, the “Monocyte activation (THP1-Xblue, OD655)” value was 0.16 OD655 and the “moDC activation (IL-12p70)” value was 1320 pg/mL.
B15 was tested, and the “Monocyte activation (THP1-Xblue, OD655)” value was 0.11 OD655 and the “moDC activation (IL-12p70)” value was 2160 pg/mL.
In the case of B16, the “Monocyte activation (THP1-Xblue, OD655)” value is reported as 0.12 OD655 and the “moDC activation (IL-12p70)” value is reported as 1510 pg/mL.
